We go through two molecules from patent US20210347908A1 (ELPISCIENCE SUZHOU BIOPHARMA, published 2021).

Where a chain is given by its changes, count along the chain named.

The target in test [1] is T1, 6×His tagged human SIRPα v2 ECD recombinant protein (human). Briefly: SPR (Biacore). As for the experimental part:
(§1) Anti-SIRPα chimeric antibodies were characterized for binding affinity against human SIRPα v1, human SIRPα v2 and C57BL/6 mouse SIRPα using Biacore (GE). Briefly the antibodies to be tested were captured to CM5 chip (GE) using Human Antibody Capture Kit (GE). The antigens of 6×His tagged human SIRPα v1, human SIRPα v2 and C57BL/6 mouse SIRPα ECD recombinant proteins were serially diluted for multiple doses and injected at 30 μl/min for 180 s. Buffer flow was maintained for dissociation of 400 s. 3 M MgCl₂ was used for chip regeneration. The association and dissociation curves were fit with 1:1 binding model, and the Ka/Kd/KD values for each antibody were calculated.
(§2) hu035.01, the first version of humanized 035, was characterized by FACS assay using CHOK1-human SIRPα v1-1B4 cells, ELISA assay using Fc tagged human SIRPα v2 ECD recombinant protein and SPR analysis using the antigen of 6×His tagged human SIRPα v2 ECD recombinant protein (refer to methods described in Example 3.4, Example 3.3 and Example 4.3). […] In particular, hu035.01 cannot be detected to bind with C57BL/6 mouse SIRPα ECD in ELISA assay possibly due to reduced binding activity (FIG. 5B).

Test [2] concerns the target T2, full length human SIRPα v1 stably expressed on CHOK1 cells (human, UniProt P78324 31-504).
T2 construct: whole, on cells; also called CHOK1-human SIRPα v1-1B4 cells; CHOK1-human SIRPα v1
Description: FACS on CHOK1-human SIRPα v1-1B4 cells. As for the experimental part: (§3) Species cross reactivity of the purified hybridoma antibodies against human, cyno and mouse SIRPα was determined by FACS assay using CHOK1-human SIRPα v1-1B4 cells, CHOK1-cyno SIRPα-2A2 cells, and CHOK1-C57BL/6 mouse SIRPα-2.22 cells, which stably expressing SIRPα protein. Briefly the antibodies were incubated with 2×10⁵ target cells at 4° C. for 1 hour. After washing, fluorescence labeled anti-mouse or anti-human IgG 2nd antibody (Life Technologies) was added and incubated at 4° C. for 1 hour. Geometric median fluorescence intensity was detected and EC₅₀ was calculated. In particular, it is noted, in contrast to the other antibodies tested in the same experiment, 060 cannot bind with cyno SIRPα and 035 has cross reactivity against C57BL/6 mouse SIRPα.
as §2

Test [3] addresses T1, 6×His tagged human SIRPα v2 ECD …. Briefly: SPR (Biacore), antibody captured, 6×His tagged human SIRPα v2 ECD as analyte. How it is done: as §1, §2
In test [4] the target is T3, 6×His tagged C57BL/6 mouse SIRPα ECD recombinant protein (mouse (C57BL/6), UniProt P97797 32-373).
T3 construct: extracellular domain; bought; also called mSIRPα (C57BL/6); mouse SIRPα (C57BL/6) ECD
T3 sequence: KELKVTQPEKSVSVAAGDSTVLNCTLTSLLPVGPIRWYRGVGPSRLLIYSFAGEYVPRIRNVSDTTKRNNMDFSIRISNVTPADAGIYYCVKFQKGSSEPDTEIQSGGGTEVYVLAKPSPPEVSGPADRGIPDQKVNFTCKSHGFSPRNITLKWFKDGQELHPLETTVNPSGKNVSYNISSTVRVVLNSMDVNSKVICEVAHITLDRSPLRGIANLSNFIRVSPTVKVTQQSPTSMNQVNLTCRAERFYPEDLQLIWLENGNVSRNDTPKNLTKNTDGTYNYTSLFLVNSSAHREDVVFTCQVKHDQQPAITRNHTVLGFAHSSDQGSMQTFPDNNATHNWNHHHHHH
Briefly: ELISA on coated mouse SIRPα (C57BL/6) ECD, antibody at 10, 1 and 0.1 ug/ml [right panel mSIRPα ECD (C57BL/6].

For test [5], the target named is T4, Fc tagged human SIRPα v1 ECD recombinant protein (human, UniProt P78324 31-370).
T4 construct: range 1-370; cloned range M1-R370 includes the signal peptide; also called hSIRPα V1; not shown: human IgG Fc region (hFc) of the pCPC vector
T4 sequence (P78324 31-370 limits assumed): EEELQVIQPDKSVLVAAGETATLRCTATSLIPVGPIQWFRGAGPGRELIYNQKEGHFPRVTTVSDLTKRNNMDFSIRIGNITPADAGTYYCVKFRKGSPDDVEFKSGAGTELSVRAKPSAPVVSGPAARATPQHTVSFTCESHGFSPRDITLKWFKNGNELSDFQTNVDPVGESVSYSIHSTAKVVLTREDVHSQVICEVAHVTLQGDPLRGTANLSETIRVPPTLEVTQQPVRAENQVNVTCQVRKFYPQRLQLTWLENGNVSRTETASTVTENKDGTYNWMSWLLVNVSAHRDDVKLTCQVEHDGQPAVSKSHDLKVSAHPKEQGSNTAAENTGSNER
Briefly: ELISA.

Test [6] has as its target T5, Fc tagged human SIRPα v2 ECD recombinant protein (human).
T5 construct: range 1-369; cloned range M1-R369 includes the signal peptide; also called hSIRPα V2
Briefly: ELISA.

For test [7], the target named is T6, Fc tagged human SIRPβ ECD recombinant protein (human, UniProt O00241 30-371).
T6 construct: range 1-371; cloned range includes the signal peptide; also called hSIRPβ; not shown: human IgG Fc region (hFc) of the pCPC vector
T6 sequence (O00241 30-371 limits assumed, form in doubt): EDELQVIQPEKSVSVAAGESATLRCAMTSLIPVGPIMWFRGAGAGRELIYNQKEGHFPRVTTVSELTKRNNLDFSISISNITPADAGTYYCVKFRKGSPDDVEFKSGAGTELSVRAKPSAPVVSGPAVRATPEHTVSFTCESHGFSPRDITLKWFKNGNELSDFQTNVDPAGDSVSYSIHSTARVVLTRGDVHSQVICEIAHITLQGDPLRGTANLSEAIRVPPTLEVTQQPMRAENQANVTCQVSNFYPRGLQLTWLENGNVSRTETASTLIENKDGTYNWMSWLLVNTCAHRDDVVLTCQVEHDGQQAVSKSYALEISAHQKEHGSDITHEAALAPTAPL
Description: ELISA.

Test [8] has as its target T7, Fc tagged human SIRPγ ECD recombinant protein (human, UniProt Q9P1W8 29-360).
T7 construct: range 1-360; cloned range includes the signal peptide; also called hSIRPγ; not shown: human IgG Fc region (hFc) of the pCPC vector
Briefly: ELISA.

The target in test [9] is T8, 6×His tagged human SIRPα v8 ECD recombinant protein (human).
T8 construct: extracellular domain; bought; also called hSIRPα V8
Briefly: ELISA.

Test [10] deals with T1, 6×His tagged human SIRPα v2 ECD …. Description: SPR (Biacore). The source holds these as a separate data set.
For test [11], the target named is T9, 6×His tagged human SIRPα v1 ECD recombinant protein (human, UniProt P78324 31-373).
T9 construct: extracellular domain; bought; also called hSIRPα V1 (SPR antigen)
T9 sequence (P78324 other isoform, or with tags, fused parts or gaps): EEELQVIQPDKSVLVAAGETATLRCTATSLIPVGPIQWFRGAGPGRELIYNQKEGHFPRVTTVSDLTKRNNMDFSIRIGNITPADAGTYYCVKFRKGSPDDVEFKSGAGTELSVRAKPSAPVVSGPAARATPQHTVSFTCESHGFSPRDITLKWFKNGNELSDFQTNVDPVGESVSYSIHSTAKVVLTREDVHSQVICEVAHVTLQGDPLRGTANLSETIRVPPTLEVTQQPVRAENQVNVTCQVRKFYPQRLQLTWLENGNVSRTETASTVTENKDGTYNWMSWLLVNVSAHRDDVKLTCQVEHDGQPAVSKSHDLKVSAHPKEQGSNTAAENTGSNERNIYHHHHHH
Briefly: SPR (Biacore).

Test [12] has as its target T3, 6×His tagged C57BL/6 mouse SIRPα ECD …. Description: SPR (Biacore).
Test [13] addresses T2, full length human SIRPα v1 stably …. Briefly: FACS on CHOK1 cells. As for the experimental part: as §3
Test [14] addresses T10, full length cyno SIRPα stably expressed on CHOK1 cells (cynomolgus monkey, UniProt A0A2K5VYQ9 31-507).
T10 construct: whole, on cells; also called CHOK1-cyno SIRPα-2A2 cells; CHOK1-cyno SIRPα
T10 sequence: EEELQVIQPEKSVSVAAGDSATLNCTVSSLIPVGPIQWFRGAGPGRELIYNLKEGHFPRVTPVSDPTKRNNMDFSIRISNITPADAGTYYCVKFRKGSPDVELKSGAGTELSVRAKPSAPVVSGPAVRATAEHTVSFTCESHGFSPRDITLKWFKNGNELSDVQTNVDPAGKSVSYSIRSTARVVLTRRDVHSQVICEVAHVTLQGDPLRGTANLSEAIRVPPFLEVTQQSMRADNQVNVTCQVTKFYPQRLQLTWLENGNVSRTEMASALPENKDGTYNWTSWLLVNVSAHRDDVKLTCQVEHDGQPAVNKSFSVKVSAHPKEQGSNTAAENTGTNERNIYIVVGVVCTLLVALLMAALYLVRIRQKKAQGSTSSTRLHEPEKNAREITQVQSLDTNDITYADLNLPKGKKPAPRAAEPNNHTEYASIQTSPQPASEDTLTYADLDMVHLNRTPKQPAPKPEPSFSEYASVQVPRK
Description: FACS on CHOK1 cells. As for the experimental part: as §3

For test [15], the target named is T11, full length C57BL/6 mouse SIRPα stably expressed on CHOK1 cells (mouse (C57BL/6), UniProt P97797 32-513).
T11 construct: whole, on cells; also called CHOK1-C57BL/6 mouse SIRPα-2.22 cells
T11 sequence (looked up): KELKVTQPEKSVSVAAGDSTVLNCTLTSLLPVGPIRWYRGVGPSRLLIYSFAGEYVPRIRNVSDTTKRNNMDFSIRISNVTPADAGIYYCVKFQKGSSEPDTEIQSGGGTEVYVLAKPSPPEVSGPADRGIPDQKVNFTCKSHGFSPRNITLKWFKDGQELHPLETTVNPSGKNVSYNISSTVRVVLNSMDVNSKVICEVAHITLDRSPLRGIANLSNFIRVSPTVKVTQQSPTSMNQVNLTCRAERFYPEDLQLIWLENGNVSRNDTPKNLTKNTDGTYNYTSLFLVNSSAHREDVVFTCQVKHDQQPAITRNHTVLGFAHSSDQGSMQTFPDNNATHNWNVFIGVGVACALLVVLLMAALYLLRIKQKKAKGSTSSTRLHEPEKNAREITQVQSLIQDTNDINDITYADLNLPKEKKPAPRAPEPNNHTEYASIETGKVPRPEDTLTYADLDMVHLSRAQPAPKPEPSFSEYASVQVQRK
Description: FACS on CHOK1 cells. As for the experimental part: as §3

The target of test [16] is T1, 6×His tagged human SIRPα v2 ECD …. Description: SPR (Biacore), antibody captured. How it is done: as §1
The target of test [17] is T9, 6×His tagged human SIRPα v1 ECD …. Briefly: SPR (Biacore), antibody captured. As for the experimental part: as §1
Test [18] has as its target T3, 6×His tagged C57BL/6 mouse SIRPα ECD …. Description: SPR (Biacore), antibody captured. How it is done: as §1
Test [19] deals with T12, biotin labeled soluble human SIRPα v1 ECD recombinant protein (human, UniProt P78324 31-373, biotin labeled).
T12 construct: extracellular domain
T12 sequence (P78324 31-373): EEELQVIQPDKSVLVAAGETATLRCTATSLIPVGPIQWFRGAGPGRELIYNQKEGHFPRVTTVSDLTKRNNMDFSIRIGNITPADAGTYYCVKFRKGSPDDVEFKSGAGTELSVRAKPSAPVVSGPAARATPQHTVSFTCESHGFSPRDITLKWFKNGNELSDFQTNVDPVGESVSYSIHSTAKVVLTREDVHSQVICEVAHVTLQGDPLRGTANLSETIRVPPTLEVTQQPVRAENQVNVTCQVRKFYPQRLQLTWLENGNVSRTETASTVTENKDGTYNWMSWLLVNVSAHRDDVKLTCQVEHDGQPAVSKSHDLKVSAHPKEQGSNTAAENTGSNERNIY
Briefly: competitive ELISA, hSIRPα/CD47 blocking.

Test [20] deals with T3, 6×His tagged C57BL/6 mouse SIRPα ECD …. Description: ELISA on coated mouse SIRPα (C57BL/6) ECD [Continued) F].

T1 sequence (chain, as listed by the source): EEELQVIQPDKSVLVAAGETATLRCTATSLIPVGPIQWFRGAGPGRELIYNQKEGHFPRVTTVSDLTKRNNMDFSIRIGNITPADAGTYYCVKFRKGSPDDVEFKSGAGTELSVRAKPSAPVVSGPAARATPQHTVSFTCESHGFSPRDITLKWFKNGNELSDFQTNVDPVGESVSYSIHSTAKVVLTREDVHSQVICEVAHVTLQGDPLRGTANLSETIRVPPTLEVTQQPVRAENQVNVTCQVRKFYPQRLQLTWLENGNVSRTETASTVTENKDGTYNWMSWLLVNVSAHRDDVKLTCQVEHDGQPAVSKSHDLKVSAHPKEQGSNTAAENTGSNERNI
T7 sequence (Q9P1W8 29-360 limits assumed, form in doubt): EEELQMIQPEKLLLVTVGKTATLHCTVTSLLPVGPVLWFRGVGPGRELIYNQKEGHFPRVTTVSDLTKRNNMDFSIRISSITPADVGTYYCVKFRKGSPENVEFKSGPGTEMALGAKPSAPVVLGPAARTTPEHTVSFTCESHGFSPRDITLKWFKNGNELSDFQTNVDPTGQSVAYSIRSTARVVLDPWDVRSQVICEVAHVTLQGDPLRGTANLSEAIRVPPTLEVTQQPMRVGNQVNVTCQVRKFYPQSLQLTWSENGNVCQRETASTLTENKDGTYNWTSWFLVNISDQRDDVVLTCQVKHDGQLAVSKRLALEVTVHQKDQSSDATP

B1: humanized antibody hu035.01 (antibody, V domains shown)
VH: QIQLVQSGSELKKPGASVKVSCKASGYTFTNYAMNWVRQAPGQGLEWMGWINTYTGEPTYAQGFKGRFVFSLDTSVSTAYLQISSLKAEDTAVYYCARTRGYYDFDGGAFDYWGQGTLVTVSS
VL: DIQMTQSPSSLSASVGDRVTITCRASQNVGTHLAWFQQKPGKAPKSLIYSASYRYIGVPSRFSGSGSGTDFTLTISSLQPEDFATYYCQQYNTYPLTFGQGTKLEIK
notes: first humanized version of 035 (CDR graft on VH7-4-1 / VK1-16)
Turning to B1, in test [1], the equilibrium dissociation constant (Kd) amounted to 53.4 nM. Moreover, the “EC50 (read off the curve)” value in test [2] is ~0.5 µg/mL. In addition, in [3], the off-rate (koff) was 0.00065 s⁻¹ and the kon came to 12200 M⁻¹ s⁻¹. In addition, the binding result in [4] was “no binding (tested: 10 ug/ml)”.

B2: humanized antibody hu035.17 (antibody, V domains shown)
VH: B1 VH with K23R, S25R, F29L, N31D, W50F, S84G
VL: DIQMTQSPSSLSASVGDRVTITCRASQNVGTHLAWYQQKPGKAPKSLIYSAIYRYIGVPSRFSGSGSGTDFTLTISSLQPEDFATYFCQQYNTYPLTFDQGTKLEIKR
Take B2: the EC50 in test [5] was 0.18 nM; in [6] it was 0.15 nM; in test [7], 0.15 nM; in test [8] it was 0.54 nM; in [9], 0.26 nM; in test [13], 1.15 nM. In addition, in test [14], the EC50 amounted to 0.24 nM. Further, the equilibrium dissociation constant (Kd) in [10] was 1.43 nM; in test [11] it was 0.86 nM; in test [12], 25.9 nM; in [16] it was 2.17 nM; in test [17] it was 0.86 nM; in [18], 25.9 nM. Further, in [15], the “MFI at 2 ug/ml” value was determined as 1120 MFI. Also, the koff in test [16] was 0.000191 s⁻¹; in test [17], 0.00012 s⁻¹; in [18] it was 0.0015 s⁻¹. Further, the on-rate (kon) in test [16] amounted to 88300 M⁻¹ s⁻¹; in test [17], 140000 M⁻¹ s⁻¹; in [18], 57900 M⁻¹ s⁻¹. In addition, the IC50 in [19] was 1.22 nM. Moreover, the “EC50 (read off the curve)” value in test [20] was ~0.04 µg/mL.
